Results from the supplement of paper PMC5998384.

Experiments:
HeLa Kyoto [1] = assay: solubility in G1/S (NP-40 vs SDS abundance) (log2 ratio); higher = more soluble; conditions: cell cycle stage: G1/S
HeLa Kyoto [2] = assay: solubility change mitosis vs G1/S (difference of NP-40 vs SDS log2 ratios) (log2 ratio difference); higher = more soluble in mitosis
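For solubility change mitosis vs G1/S (difference of NP-40 vs SDS log2 ratios) in this document: synchronized HeLa Kyoto cells (double thymidine block for G1/S, nocodazole release for mitosis), protein amounts in NP-40 versus SDS lysates quantified by mass spectrometry, three biological replicates.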
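For solubility in G1/S (NP-40 vs SDS abundance) in this document: HeLa Kyoto cells arrested at G1/S by double thymidine block, proteins quantified by TMT10plex mass spectrometry in mild NP-40 versus SDS extracts, three biological replicates.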

Row | Sequence | solubility in G1/S (log2) (HeLa Kyoto [1]) | solubility change mitosis (log2) (HeLa Kyoto [2])
1 | MRDADADAGGGADGGDGRGGHSCRGGVDTAAAPAGGAPPAHAPGPGRDAASAARGSRMRPHIFTLSVPFPTPLEAEIAHGSLAPDAEPHQRVVGKDLTVSGRILVVRWKAEDCRLLRISVINFLDQLSLVVRTMQRFGPPVSR [LAGE3] | 0.0355 | 0.0284
2 | MRPLDIVELAEPEEVEVLEPEEDFEQFLLPVINEMREDIASLTREHGRAYLRNRSKLWEMDNMLIQIKTQVEASEESALNHLQNPGDAAEGRAAKRCEKAEEKAKEIAKMAEMLVELVRRIEKSESS [MRFAP1] | 0.156 | 0.549
3 | MRPWTGSWRWIMLILFAWGTLLFYIGGHLVRDNDHPDHSSRELSKILAKLERLKQQNEDLRRMAESLRIPEGPIDQGPAIGRVRVLEEQLVKAKEQIENYKKQTRNGLGKDHEILRRRIENGAKELWFFLQSELKKLKNLEGNELQRHADEFLLDLGHHERSIMTDLYYLSQTDGAGDWREKEAKDLTELVQRRITYLQNPKDCSKAKKLVCNINKGCGYGCQLHHVVYCFMIAYGTQRTLILESQNWRYATGGWETVFRPVSETCTDRSGISTGHWSGEVKDKNVQVVELPIVDSLHPRPPYLPLAVPEDLADRLVRVHGDPAVWWVSQFVKYLIRPQPWLEKEIEEATKKLGFKHPVIGVHVRRTDKVGTEAAFHPIEEYMVHVEEHFQLLARRMQVDKKRVYLATDDPSLLKEAKTKYPNYEFISDNSISWSAGLHNRYTENSLRGVILDIHFLSQADFLVCTFSSQVCRVAYEIMQTLHPDASANFHSLDDIYYFGGQNAHNQIAIYAHQPRTADEIPMEPGDIIGVAGNHWDGYSKGVNRKLGRTGLYPSYKVREKIETVKYPTYPEAEK [FUT8] | -0.188 | -0.0307
4 | MRRAELAGLKTMAWVPAESAVEELMPRLLPVEPCDLTEGFDPSVPPRTPQEYLRRVQIEAAQCPDVVVAQIDPKKLKRKQSVNISLSGCQPAPEGYSPTLQWQQQQVAQFSTVRQNVNKHRSHWKSQQLDSNVTMPKSEDEEGWKKFCLGEKLCADGAVGPATNESPGIDYVQIGFPPLLSIVSRMNQATVTSVLEYLSNWFGERDFTPELGRWLYALLACLEKPLLPEAHSLIRQLARRCSEVRLLVDSKDDERVPALNLLICLVSRYFDQRDLADEPS [GEMIN2] | 0.59 | 0.437
5 | MRRDERDAKAMRSLQPPDGAGSPPESLRNGYVKSCVSPLRQDPPRGFFFHLCRFCNVELRPPPASPQQPRRCSPFCRARLSLGALAAFVLALLLGAEPESWAAGAAWLRTLLSVCSHSLSPLFSIACAFFFLTCFLTRTKRGPGPGRSCGSWWLLALPACCYLGDFLVWQWWSWPWGDGDAGSAAPHTPPEAAAGRLLLVLSCVGLLLTLAHPLRLRHCVLVLLLASFVWWVSFTSLGSLPSALRPLLSGLVGGAGCLLALGLDHFFQIREAPLHPRLSSAAEEKVPVIRPRRRSSCVSLGETAASYYGSCKIFRRPSLPCISREQMILWDWDLKQWYKPHYQNSGGGNGVDLSVLNEARNMVSDLLTDPSLPPQVISSLRSISSLMGAFSGSCRPKINPLTPFPGFYPCSEIEDPAEKGDRKLNKGLNRNSLPTPQLRRSSGTSGLLPVEQSSRWDRNNGKRPHQEFGISSQGCYLNGPFNSNLLTIPKQRSSSVSLTHHVGLRRAGVLSSLSPVNSSNHGPVSTGSLTNRSPIEFPDTADFLNKPSVILQRSLGNAPNTPDFYQQLRNSDSNLCNSCGHQMLKYVSTSESDGTDCCSGKSGEEENIFSKESFKLMETQQEEETEKKDSRKLFQEGDKWLTEEAQSEQQTNIEQEVSLDLILVEEYDSLIEKMSNWNFPIFELVEKMGEKSGRILSQVMYTLFQDTGLLEIFKIPTQQFMNYFRALENGYRDIPYHNRIHATDVLHAVWYLTTRPVPGLQQIHNGCGTGNETDSDGRINHGRIAYISSKSCSNPDESYGCLSSNIPALELMALYVAAAMHDYDHPGRTNAFLVATNAPQAVLYNDRSVLENHHAASAWNLYLSRPEYNFLLHLDHVEFKRFRFLVIEAILATDLKKHFDFLAEFNAKANDVNSNGIEWSNENDRLLVCQVCIKLADINGPAKVRDLHLKWTEGIVNEFYEQGDEEANLGLPISPFMDRSSPQLAKLQESFITHIVGPLCNSYDAAGLLPGQWLEAEEDNDTESGDDEDGEELDTEDEEMENNLNPKPPRRKSRRRIFCQLMHHLTENHKIWKEIVEEEEKCKADGNKLQVENSSLPQADEIQVIEEADEEE [PDE3B] | -0.122 | -0.0328
6 | MRRDVNGVTKSRFEMFSNSDEAVINKKLPKELLLRIFSFLDVVTLCRCAQVSRAWNVLALDGSNWQRIDLFDFQRDIEGRVVENISKRCGGFLRKLSLRGCLGVGDNALRTFAQNCRNIEVLNLNGCTKTTDATCTSLSKFCSKLRHLDLASCTSITNMSLKALSEGCPLLEQLNISWCDQVTKDGIQALVRGCGGLKALFLKGCTQLEDEALKYIGAHCPELVTLNLQTCLQITDEGLITICRGCHKLQSLCASGCSNITDAILNALGQNCPRLRILEVARCSQLTDVGFTTLARNCHELEKMDLEECVQITDSTLIQLSIHCPRLQVLSLSHCELITDDGIRHLGNGACAHDQLEVIELDNCPLITDASLEHLKSCHSLERIELYDCQQITRAGIKRLRTHLPNIKVHAYFAPVTPPPSVGGSRQRFCRCCIIL [FBXL20] | -0.0856 | -0.0226
7 | MRRSLAPSQLAKRKPEGRSCDDEDWQPGLVTPRKRKSSSETQIQECFLSPFRKPLSQLTNQPPCLDSSQHEAFIRSILSKPFKVPIPNYQGPLGSRALGLKRAGVRRALHDPLEKDALVLYEPPPLSAHDQLKLDKEKLPVHVVVDPILSKVLRPHQREGVKFLWECVTSRRIPGSHGCIMADEMGLGKTLQCITLMWTLLRQSPECKPEIDKAVVVSPSSLVKNWYNEVGKWLGGRIQPLAIDGGSKDEIDQKLEGFMNQRGARVSSPILIISYETFRLHVGVLQKGSVGLVICDEGHRLKNSENQTYQALDSLNTSRRVLISGTPIQNDLLEYFSLVHFVNSGILGTAHEFKKHFELPILKGRDAAASEADRQLGEERLRELTSIVNRCLIRRTSDILSKYLPVKIEQVVCCRLTPLQTELYKRFLRQAKPAEELLEGKMSVSSLSSITSLKKLCNHPALIYDKCVEEEDGFVGALDLFPPGYSSKALEPQLSGKMLVLDYILAVTRSRSSDKVVLVSNYTQTLDLFEKLCRARRYLYVRLDGTMSIKKRAKVVERFNSPSSPDFVFMLSSKAGGCGLNLIGANRLVMFDPDWNPANDEQAMARVWRDGQKKTCYIYRLLSAGTIEEKIFQRQSHKKALSSCVVDEEQDVERHFSLGELKELFILDEASLSDTHDRLHCRRCVNSRQIRPPPDGSDCTSDLAGWNHCTDKWGLRDEVLQAAWDAASTAITFVFHQRSHEEQRGLR [RAD54L] | -0.0919 | -0.192
8 | MRSRVLWGAARWLWPRRAVGPARRPLSSGSPPLEELFTRGGPLRTFLERQAGSEAHLKVRRPELLAVIKLLNEKERELRETEHLLHDENEDLRKLAENEITLCQKEITQLKHQIILLLVPSEETDENDLILEVTAGVGGQEAMLFTSEIFDMYQQYAAFKRWHFETLEYFPSELGGLRHASASIGGSEAYRHMKFEGGVHRVQRVPKTEKQGRVHTSTMTVAILPQPTEINLVINPKDLRIDTKRASGAGGQHVNTTDSAVRIVHLPTGVVSECQQERSQLKNKELAMTKLRAKLYSMHLEEEINKRQNARKIQIGSKGRSEKIRTYNFPQNRVTDHRINKTLHDLETFMQGDYLLDELVQSLKEYADYESLVEIISQKV [MTRF1L] | -0.0262 | 0.288
9 | MSAAGAGAGVEAGFSSEELLSLRFPLHRACRDGDLATLCSLLQQTPHAHLASEDSFYGWTPVHWAAHFGKLECLVQLVRAGATLNVSTTRYAQTPAHIAAFGGHPQCLVWLIQAGANINKPDCEGETPIHKAARSGSLECISALVANGAHVDLRNASGLTAADIAQTQGFQECAQFLLNLQNCHLNHFYNNGILNGGHQNVFPNHISVGTNRKRCLEDSEDFGVKKARTEAQSLDSAVPLTNGDTEDDADKMHVDREFAVVTDMKNSSSVSNTLTNGCVINGHLDFPSTTPLSGMESRNGQCLTGTNGISSGLAPGQPFPSSQGSLCISGTEEPEKTLRANPELCGSLHLNGSPSSCIASRPSWVEDIGDNLYYGHYHGFGDTAESIPELNSVVEHSKSVKVQERYDSAVLGTMHLHHGS [ANKRD10] | 0.0215 | 0.112
10 | MSANEDQEMELEALRSIYEGDESFRELSPVSFQYRIGENGDPKAFLIEISWTETYPQTPPILSMNAFFNNTISSAVKQSILAKLQEAVEANLGTAMTYTLFEYAKDNKEQFMENHNPINSATSISNIISIETPNTAPSSKKKDKKEQLSKAQKRKLADKTDHKGELPRGWNWVDVVKHLSKTGSKDDE [RWDD4] | 0.234 | 0.301
11 | MSAQTSPAEKGLNPGLMCQESYACSGTDEAIFECDECCSLQCLRCEEELHRQERLRNHERIRLKPGHVPYCDLCKGLSGHLPGVRQRAIVRCQTCKINLCLECQKRTHSGGNKRRHPVTVYNVSNLQESLEAEEMDEETKRKKMTEKVVSFLLVDENEEIQVTNEEDFIRKLDCKPDQHLKVVSIFGNTGDGKSHTLNHTFFYGREVFKTSPTQESCTVGVWAAYDPVHKVAVIDTEGLLGATVNLSQRTRLLLKVLAISDLVIYRTHADRLHNDLFKFLGDASEAYLKHFTKELKATTARCGLDVPLSTLGPAVIIFHETVHTQLLGSDHPSEVPEKLIQDRFRKLGRFPEAFSSIHYKGTRTYNPPTDFSGLRRALEQLLENNTTRSPRHPGVIFKALKALSDRFSGEIPDDQMAHSSFFPDEYFTCSSLCLSCGVGCKKSMNHGKEGVPHEAKSRCRYSHQYDNRVYTCKACYERGEEVSVVPKTSASTDSPWMGLAKYAWSGYVIECPNCGVVYRSRQYWFGNQDPVDTVVRTEIVHVWPGTDGFLKDNNNAAQRLLDGMNFMAQSVSELSLGPTKAVTSWLTDQIAPAYWRPNSQILSCNKCATSFKDNDTKHHCRACGEGFCDSCSSKTRPVPERGWGPAPVRVCDNCYEARNVQLAVTEAQVDDEGGTLIARKVGEAVQNTLGAVVTAIDIPLGLVKDAARPAYWVPDHEILHCHNCRKEFSIKLSKHHCRACGQGFCDECSHDRRAVPSRGWDHPVRVCFNCNKKPGDL [ZFYVE1] | -0.282 | -0.0704
12 | MSELSDEASEPELLNRSLSMWHGLGTQVSGEELDVPLDLHTAASIGQYEVVKECVQRRELDLNKKNGGGWTPLMYASYIGHDTIVHLLLEAGVSVNVPTPEGQTPLMLASSCGNESIAYFLLQQGAELEMKDIQGWTALFHCTSAGHQHMVRFLLDSGANANVREPICGFTPLMEAAAAGHEIIVQYFLNHGVKVDARDHSGATARMLAKQYGHMKIVALMDTYSPSLPKSLYRSPEKYEDLSSSDESCPAPQRQRPCRKKGVSIHEGPRALARITGIGLGGRAPRPRYEQAPPRGYVTFNSSGENPLEEEGLCCRDVTSPINERDVESSSSSSSREEHAFCANLGPVQSSSSSEGLARAQGLSSEASVESNEDSDHACKSSARKQAKSYMKTKNPDSQWPPRAATDREGFLAESSPQTQRAPYSGPQDLAALLEQIGCLKYLQVFEEQDVDLRIFLTLTESDLKEIGITLFGPKRKMTSAIARWHSSARPPGDALELAYADRLEAEMQELAIQLHKRCEEVEATRGQVCQEQELRAVVESCLLEQDRAREDLQARLRETWALARDAALVLDQLRACQAELSSRVRQDQPPGAATLGLAVPPADSKGWQASLQAMSLPELSGALEDRVREMGQALCLVTQSLEKLQVLNGKKWRET [ANKS3] | -0.0739 | 0.0304
